Columns and labels:
FUS NTD (PLD+RGG1) [1] = target: T1, FUS NTD (PLD+RGG1) (UniProt P35637 1-267); test: NMR HSQC titration; 1 mM MgCl2; saturated at 1:2; RGG1 residues; 20 uM protein, 5 mM sodium phosphate pH 6.0, 1 mM MgCl2 (ZnCl2 added for full-length FUS and F-CTD), 25 C; conditions: protein: recombinant; tags: none; G4 (by CD in the phosphate buffer)
[2] = target: FUS U-CTD (RGG2-ZnF-RGG3, ZnF unfolded) (UniProt P35637 371-526); test: NMR HSQC titration (CSD); no Zn; 1:10; Arg/Lys residues; 20 uM protein, 5 mM sodium phosphate pH 6.0, 1 mM MgCl2 (ZnCl2 added for full-length FUS and F-CTD), 25 C; conditions: protein: recombinant, tags: none
FUS U-CTD (RGG2-ZnF-RGG3, ZnF unfolded), sequence (P35637 371-526): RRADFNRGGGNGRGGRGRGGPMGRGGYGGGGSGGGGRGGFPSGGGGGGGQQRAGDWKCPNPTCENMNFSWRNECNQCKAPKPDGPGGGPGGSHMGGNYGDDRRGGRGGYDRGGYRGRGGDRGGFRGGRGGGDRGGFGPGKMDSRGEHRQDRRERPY

FUS full-length [3] = target: T2, FUS full-length (UniProt P35637 1-526); test: NMR HSQC competition (displaces ATP); 3 mM ATP; 0.3 mM TssDNA; 20 uM protein, 5 mM sodium phosphate pH 6.0, 1 mM MgCl2 (ZnCl2 added for full-length FUS and F-CTD), 25 C; conditions: protein: recombinant; tags: none (His-tag removed by stop codon); G4 (by CD in the phosphate buffer)
T2 sequence (P35637 whole entry): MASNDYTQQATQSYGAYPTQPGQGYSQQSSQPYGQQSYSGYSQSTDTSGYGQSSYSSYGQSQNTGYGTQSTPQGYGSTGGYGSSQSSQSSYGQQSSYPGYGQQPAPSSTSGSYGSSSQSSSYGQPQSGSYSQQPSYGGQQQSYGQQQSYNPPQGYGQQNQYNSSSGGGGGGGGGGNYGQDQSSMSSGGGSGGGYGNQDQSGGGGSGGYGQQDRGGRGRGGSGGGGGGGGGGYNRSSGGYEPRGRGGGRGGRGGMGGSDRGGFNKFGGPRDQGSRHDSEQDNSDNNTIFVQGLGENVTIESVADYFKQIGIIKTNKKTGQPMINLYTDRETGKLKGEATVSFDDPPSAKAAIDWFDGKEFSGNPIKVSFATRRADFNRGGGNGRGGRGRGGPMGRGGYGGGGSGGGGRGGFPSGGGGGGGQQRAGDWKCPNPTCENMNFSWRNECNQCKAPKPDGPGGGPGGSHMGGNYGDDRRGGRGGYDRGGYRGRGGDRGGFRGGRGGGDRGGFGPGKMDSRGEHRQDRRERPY

[4] = target: T3, FUS F-CTD (RGG2-ZnF-RGG3, ZnF folded) (UniProt P35637 371-526); test: NMR HSQC titration (line broadening); Zn2+; all peaks lost at 1:1; 20 uM protein, 5 mM sodium phosphate pH 6.0, 1 mM MgCl2 (ZnCl2 added for full-length FUS and F-CTD), 25 C; conditions: protein: recombinant; tags: none; G4 (by CD in the phosphate buffer)
T3 sequence (P35637 371-526): as the sequence (P35637 371-526) above

FUS NTD (PLD+RGG1) [5] = target: T1, FUS NTD (PLD+RGG1); test: NMR HSQC titration; 1 mM MgCl2; same residues as TssDNA; 20 uM protein, 5 mM sodium phosphate pH 6.0, 1 mM MgCl2 (ZnCl2 added for full-length FUS and F-CTD), 25 C; conditions: protein: recombinant; tags: none; unstructured (CD)
[6] = target: T3, FUS F-CTD (RGG2-ZnF-RGG3, ZnF folded); test: NMR HSQC titration (line broadening); Zn2+; same pattern as TssDNA; 20 uM protein, 5 mM sodium phosphate pH 6.0, 1 mM MgCl2 (ZnCl2 added for full-length FUS and F-CTD), 25 C; conditions: protein: recombinant; tags: none; unstructured (CD)
FUS full-length [7] = target: T2, FUS full-length; test: NMR HSQC titration (line broadening); Zn2+; highly similar to TssDNA; 20 uM protein, 5 mM sodium phosphate pH 6.0, 1 mM MgCl2 (ZnCl2 added for full-length FUS and F-CTD), 25 C; conditions: protein: recombinant; tags: none (His-tag removed by stop codon); unstructured (CD)

Measured: binding result

T1 sequence (P35637 1-267): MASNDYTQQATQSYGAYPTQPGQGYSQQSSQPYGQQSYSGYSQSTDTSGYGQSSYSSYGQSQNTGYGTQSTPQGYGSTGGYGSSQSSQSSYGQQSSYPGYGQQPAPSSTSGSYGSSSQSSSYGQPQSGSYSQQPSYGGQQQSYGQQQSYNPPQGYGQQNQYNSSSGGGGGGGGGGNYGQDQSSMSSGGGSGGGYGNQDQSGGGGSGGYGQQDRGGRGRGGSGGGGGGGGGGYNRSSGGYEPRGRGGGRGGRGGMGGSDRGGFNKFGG

TTAGGGTTAGGGTTAGGGTTAGGG (structured_DNA) [TssDNA (telomeric ssDNA, 24-mer)]
binds: FUS NTD (PLD+RGG1) [1] | [2]; G4 (by CD in the phosphate buffer) | FUS full-length [3] | [4]

TTTTTTTTTTTTTTTTTTTTTTTT (ssDNA) [T24]
binds: FUS NTD (PLD+RGG1) [5] | [2]; unstructured (CD) | [6] | FUS full-length [7]
